Data reported in PMC4243253 (Biochemical Journal, 2014).

Molecular target: the molecule itself
Assay: SEC

B1: Bacillus anthracis kynurenine formamidase KynB (enzyme)
chain: MKTSKWIDISQPLNNDIATWPGDTPFSYEVLWSKEESGSVNVGKLTMSIHTGTHIDAPFHFDNDGKKVLDLDIQVYVGPTRIIDVSNLESIGKKELEKFHLEGVERLLLRTSSHGKANEFPDIIPHLRADIAPFLSEKGIRLIGVDVPSVDPLDDKELAAHHQLFKHSIHILENVVLDHVADGDYELIALPLALSDADGSPVRAVIRPI
notes: also called BaKynB; KFase
stoichiometry N: 2
